First the molecules themselves.
B1: Hairpin Ribozyme (parent)
chain: GUCCUCUUUCACGUGCGCGUGAAAGAGAGAAGUGAACCAGAGAAACACACGUUGUGGUAUAUUACCUGGUA

The variants in the data set derive from B1. In words: self-cleavage, relative activity (ratio to wild type); higher = more cleavage; co-transcriptional.
Consider G27C C66A, for which the self-cleavage was found to be 0.157. For A23U U53G, the self-cleavage turned out to be 0.696. The value for U9C A44G was 0.19; that for C4A G27C was 0.093; that for C12U U60A was 0.766. As for A49U U60A, the self-cleavage came to 0.281. In the case of C38U A43U it was 0.153; in that of C6G A44C, 0.17. As to A47C U63G, the self-cleavage worked out at 0.104. The value for A28C A44U was 0.046; that for A28G A41U was 1.05; that for U9A G54U was 0.39.

Consider U14G C65G, for which the self-cleavage was 0.213.

Take A22G C46A: the self-cleavage amounted to 0.171. In the case of G32C A41C it was 0.0995; in that of A41U G54C, 0.891; in that of G54A U58A, 0.453. Regarding U33C U62G, the self-cleavage is 0.0931. The value for C10G A45C was 0.114. Turning to G32C U63C, the self-cleavage was determined as 0.0888. The value for A36U C38U was 0.112.

For A11U G29C, the self-cleavage came to 0.0923. C3A C18G: the self-cleavage was found to be 0.602. In the case of A36G G69C it was 0.449. As to G27U C65G, the self-cleavage amounted to 0.188. The value for C4G U63A was 0.252; that for A35C G56A was 0.161. The value for G1C U52G was 0.206; that for G32A U62A was 0.162; that for A24U A31G was 0.392. Take A35G A43U: the self-cleavage is 0.223. Take U14A G54U: the self-cleavage is 0.471.

On to G32U A71C, for which the self-cleavage turned out to be 0.206.

G1A C6U: the self-cleavage came out at 0.195. The value for C16U G69A was 0.301; that for G51C A71G was 0.814. In the case of G42U U58G it was 0.192; in that of C6G G57A, 0.11. In the case of G32U G69U, the self-cleavage is 0.0924. As to A45C U60A, the self-cleavage amounted to 0.174. In the case of C48A G56U it was 0.304; in that of U2C A11U, 0.197; in that of C18G A36G, 0.68.

G21A C48U: the self-cleavage was 0.0963. G1C U9G: the self-cleavage was found to be 0.125. Regarding G13C G32C, the self-cleavage stood at 0.123. In the case of C10G G57U it was 0.243; in that of C37G G57A, 0.13; in that of G25A U63C, 0.17. For G15A A31C, the self-cleavage came out at 0.151. In the case of A24G U70C it was 0.913; in that of G19A C37G, 0.188.

As to G51A U53C, the self-cleavage came out at 1.28.

Turning to G42U U60C, the self-cleavage came to 0.241. Take A30U A44G: the self-cleavage came out at 0.064. In the case of G40U U60C it was 0.148; in that of G17A C66U, 0.554. G1U C65A: the self-cleavage came out at 0.0897. With A23U A36U, the self-cleavage was 0.491. G15A G27A: the self-cleavage came to 0.541. Turning to G27U G69U, the self-cleavage was determined as 0.152.

In the case of A11C C66U, the self-cleavage is 0.408. As for U14A U58C, the self-cleavage is 0.78. Take U2C C48G: the self-cleavage was determined as 0.108.

As to G1U A49G, the self-cleavage stood at 0.234. In the case of G15A A45C it was 0.0834; in that of C10G A41G, 0.734; in that of A24U G29U, 0.0631.

Take U62A G68C: the self-cleavage amounted to 0.156. In the case of C6U G29A it was 0.158; in that of G17U C37A, 0.26; in that of G17A U70A, 0.897. The value for A23U A71C was 1.28.

On to U14C G69C, for which the self-cleavage worked out at 0.3. In the case of A28G G69U it was 0.331; in that of U7A G27A, 0.27.

On to C10G C16G, for which the self-cleavage came to 0.559. In the case of G13U A28G it was 0.725; in that of U33A G57U, 0.13; in that of G25A C37G, 0.134. In the case of U33C C37G, the self-cleavage stood at 0.0717. In the case of C6A G25C it was 0.64. In the case of G13A U60C it was 1.25; in that of C18A G25C, 0.58. Take A30C A39C: the self-cleavage amounted to 0.12. On to A26G C46U, for which the self-cleavage came out at 0.267. Take U20G U70A: the self-cleavage is 1.07. G15U C50U: the self-cleavage amounted to 0.49. Regarding C65U G68U, the self-cleavage stood at 0.327. In the case of U8G U53G, the self-cleavage was 0.705. The value for U14A G29A was 0.227. In the case of U2G C38U it was 0.24; in that of U2A A26U, 0.253. Consider U7G U53G, for which the self-cleavage amounted to 0.641.

As for C3A A36U, the self-cleavage is 0.319. Take A44G A49U: the self-cleavage worked out at 0.0347. Consider U53C U60A, for which the self-cleavage came out at 0.635. The value for A43U A71U was 0.179. In the case of U8C G29A it was 0.112; in that of A26C U58G, 0.496.

Take U14A A47C: the self-cleavage was 0.482. As to U62A A64G, the self-cleavage is 0.093.

For the variant A22U A44C, the self-cleavage is 0.239. C4A A35C: the self-cleavage was found to be 0.127. C50G G51C: the self-cleavage is 0.327. As for C4A U63G, the self-cleavage stood at 0.269. In the case of U14C G68A it was 0.234; in that of C18G A47U, 0.0785; in that of C3G C65U, 0.0576. The value for U52G U62C was 0.126; that for A22G A41G was 0.811. The value for C3A A22G was 0.706; that for C46U A47C was 0.149. In the case of A24U G69A, the self-cleavage amounted to 0.327. In the case of U52A U67G, the self-cleavage was determined as 0.408. The value for A43G A47G was 0.196; that for C16G U63A was 0.15. In the case of G25U U60A it was 0.391; in that of G1C U33A, 0.0439. For G19U A59G, the self-cleavage came out at 0.204. In the case of G32C A43G it was 0.0421. C18U U20C: the self-cleavage stood at 1.06.

Regarding G21C U52C, the self-cleavage was 0.971. The value for G54U U58A was 0.302; that for G32C C37U was 0.131. In the case of U52G G69C it was 0.478; in that of G32U C66U, 0.194. The value for C12G A64U was 0.173. In the case of C12A A44U, the self-cleavage turned out to be 0.186. In the case of G29A U67G, the self-cleavage came to 0.0868. In the case of G34A A61C it was 0.336. As for U53A A71C, the self-cleavage came to 1.41. In the case of U9G U63G it was 0.206; in that of C65A G68A, 0.378; in that of C46G U58G, 0.112. For G34C C38G, the self-cleavage amounted to 0.683. Take C12U C50A: the self-cleavage came to 0.314.

As to A30U A71G, the self-cleavage was determined as 0.286. Turning to C6U U7C, the self-cleavage was found to be 0.555. In the case of A23C A47G it was 0.132. For the variant U52A A61C, the self-cleavage was 0.256.

On to A26C U55G, for which the self-cleavage came out at 0.297. Turning to G19C U67A, the self-cleavage was 0.323. In the case of U33C A64U it was 0.154; in that of G25U C38U, 0.332.

Regarding G40A A44U, the self-cleavage amounted to 0.178. In the case of A45U C46A it was 0.125; in that of C18U G68C, 0.221. The value for C18U G68A was 0.224; that for A31G A35C was 0.6; that for A59C C66G was 0.253. In the case of G17U A61G it was 0.117; in that of A45C A47C, 0.198. For the variant A43C U62A, the self-cleavage amounted to 0.12. In the case of A22U G40A it was 0.218; in that of U9C C65G, 0.159. In the case of G40C G69U it was 0.128; in that of U63C G69A, 0.216; in that of C4G U67A, 0.111. The value for A39U U60C was 0.378; that for A30U G34C was 0.42. For the variant C10U U52A, the self-cleavage was 0.761. The value for A23C U33G was 0.171; that for G32U A43U was 0.148. In the case of G19C G57A it was 0.174; in that of C46U C66G, 0.146; in that of C38U G51C, 0.583.

(Values after the RNAGym collection of RNA variant scans (doi:10.7554/elife.80360).)
